Measured values: patent US12630600B2 (MEDIMMUNE LIMITED, priority 2022, dated 2026)
Starred links: 1 amine or outer side, 2 acyl side, 3 side chain; linkers in the order of their positions; H or OH if unused. Non-standard residues stand in square brackets, D forms with d. Groups on a side chain read outwards from the residue. No end group written: not given here. *: point of attachment. C20 diacid = O=C(O)CCCCCCCCCCCCCCCCCCC(=O)*; C18 diacid = O=C(O)CCCCCCCCCCCCCCCCC(=O)*; γGlu = O=C(O)[C@H](CCC(=O)[*:2])N[*:1]; αMeF = C[C@](N)(Cc1ccccc1)C(=O)O; AEEA = NCCOCCOCC(=O)O; Aib = CC(C)(N)C(=O)O

Assays:
[1] = biological target: human glucagon receptor (human, UniProt P47871); assay: cell-based or functional assay
[2] = biological target: human GLP-1 receptor (human, UniProt P43220); assay: cell-based or functional assay

Binder	cAMP production EC50 [1]	cAMP production EC50 [2]
H[Aib]QGTFTSDVSK[αMeF]LDTK([AEEA-AEEA-γGlu-C18 diacid])RARDFVQWLLA[Aib]G-NH2 (N-terminus assumed; SMILES CC(C)C[C@H](NC(=O)[C@H](CC(C)C)NC(=O)[C@H](Cc1c[nH]c2ccccc12)NC(=O)[C@H](CCC(N)=O)NC(=O)[C@@H](NC(=O)[C@H](Cc1ccccc1)NC(=O)[C@H](CC(=O)O)NC(=O)[C@H](CCCNC(=N)N)NC(=O)[C@H](C)NC(=O)[C@H](CCCNC(=N)N)NC(=O)[C@H](CCCCNC(=O)COCCOCCNC(=O)COCCOCCNC(=O)CC[C@H](NC(=O)CCCCCCCCCCCCCCCCC(=O)O)C(=O)O)NC(=O)[C@@H](NC(=O)[C@H](CC(=O)O)NC(=O)[C@H](CC(C)C)NC(=O)[C@](C)(Cc1ccccc1)NC(=O)[C@H](CCCCN)NC(=O)[C@H](CO)NC(=O)[C@@H](NC(=O)[C@H](CC(=O)O)NC(=O)[C@H](CO)NC(=O)[C@@H](NC(=O)[C@H](Cc1ccccc1)NC(=O)[C@@H](NC(=O)CNC(=O)[C@H](CCC(N)=O)NC(=O)C(C)(C)NC(=O)[C@@H](N)Cc1c[nH]cn1)[C@@H](C)O)[C@@H](C)O)C(C)C)[C@@H](C)O)C(C)C)C(=O)N[C@@H](C)C(=O)NC(C)(C)C(=O)NCC(N)=O) [Peptide 474]	0.0569 nM	0.00804 nM
H[Aib]QGTFTSDVSK[αMeF]LDKK([AEEA-AEEA-γGlu-C18 diacid])RARDFVQWLL[Aib]E-NH2 (N-terminus assumed; SMILES CC(C)C[C@H](NC(=O)[C@H](Cc1c[nH]c2ccccc12)NC(=O)[C@H](CCC(N)=O)NC(=O)[C@@H](NC(=O)[C@H](Cc1ccccc1)NC(=O)[C@H](CC(=O)O)NC(=O)[C@H](CCCNC(=N)N)NC(=O)[C@H](C)NC(=O)[C@H](CCCNC(=N)N)NC(=O)[C@H](CCCCNC(=O)COCCOCCNC(=O)COCCOCCNC(=O)CC[C@H](NC(=O)CCCCCCCCCCCCCCCCC(=O)O)C(=O)O)NC(=O)[C@H](CCCCN)NC(=O)[C@H](CC(=O)O)NC(=O)[C@H](CC(C)C)NC(=O)[C@](C)(Cc1ccccc1)NC(=O)[C@H](CCCCN)NC(=O)[C@H](CO)NC(=O)[C@@H](NC(=O)[C@H](CC(=O)O)NC(=O)[C@H](CO)NC(=O)[C@@H](NC(=O)[C@H](Cc1ccccc1)NC(=O)[C@@H](NC(=O)CNC(=O)[C@H](CCC(N)=O)NC(=O)C(C)(C)NC(=O)[C@@H](N)Cc1c[nH]cn1)[C@@H](C)O)[C@@H](C)O)C(C)C)C(C)C)C(=O)N[C@@H](CC(C)C)C(=O)NC(C)(C)C(=O)N[C@@H](CCC(=O)O)C(N)=O) [Peptide 472]	0.0111 nM	0.00763 nM
H[Aib]QGTFTSDVSK[αMeF]LDTK([AEEA-AEEA-γGlu-γGlu-C18 diacid])RAQDFVQWLLE[Aib]G-NH2 [Peptide 468]	0.292 nM	0.0675 nM
H[Aib]QGTFTSDVSK[αMeF]LDLK([AEEA-AEEA-γGlu-γGlu-C18 diacid])RAQDFVQWLL[Aib]T-OH (N-terminus assumed; SMILES CC(C)C[C@H](NC(=O)[C@H](CC(=O)O)NC(=O)[C@H](CC(C)C)NC(=O)[C@](C)(Cc1ccccc1)NC(=O)[C@H](CCCCN)NC(=O)[C@H](CO)NC(=O)[C@@H](NC(=O)[C@H](CC(=O)O)NC(=O)[C@H](CO)NC(=O)[C@@H](NC(=O)[C@H](Cc1ccccc1)NC(=O)[C@@H](NC(=O)CNC(=O)[C@H](CCC(N)=O)NC(=O)C(C)(C)NC(=O)[C@@H](N)Cc1c[nH]cn1)[C@@H](C)O)[C@@H](C)O)C(C)C)C(=O)N[C@@H](CCCCNC(=O)COCCOCCNC(=O)COCCOCCNC(=O)CC[C@H](NC(=O)CC[C@H](NC(=O)CCCCCCCCCCCCCCCCC(=O)O)C(=O)O)C(=O)O)C(=O)N[C@@H](CCCNC(=N)N)C(=O)N[C@@H](C)C(=O)N[C@@H](CCC(N)=O)C(=O)N[C@@H](CC(=O)O)C(=O)N[C@@H](Cc1ccccc1)C(=O)N[C@H](C(=O)N[C@@H](CCC(N)=O)C(=O)N[C@@H](Cc1c[nH]c2ccccc12)C(=O)N[C@@H](CC(C)C)C(=O)N[C@@H](CC(C)C)C(=O)NC(C)(C)C(=O)N[C@H](C(=O)O)[C@@H](C)O)C(C)C) [Peptide 465]	0.436 nM	0.485 nM

Second part, the binder after the results:

cAMP production EC50 [1]	cAMP production EC50 [2]	Binder
0.0636 nM	0.102 nM	H[Aib]QGTFTSDVSK[αMeF]LDRK([AEEA-AEEA-γGlu-C20 diacid])RARDFVQWLL[Aib]E-NH2 [Peptide 471]
0.0303 nM	0.0559 nM	H[Aib]QGTFTSDVSK[αMeF]LDKK([AEEA-AEEA-γGlu-C20 diacid])RARDFVQWLL[Aib]E-NH2 (N-terminus assumed; SMILES CC(C)C[C@H](NC(=O)[C@H](Cc1c[nH]c2ccccc12)NC(=O)[C@H](CCC(N)=O)NC(=O)[C@@H](NC(=O)[C@H](Cc1ccccc1)NC(=O)[C@H](CC(=O)O)NC(=O)[C@H](CCCNC(=N)N)NC(=O)[C@H](C)NC(=O)[C@H](CCCNC(=N)N)NC(=O)[C@H](CCCCNC(=O)COCCOCCNC(=O)COCCOCCNC(=O)CC[C@H](NC(=O)CCCCCCCCCCCCCCCCCCC(=O)O)C(=O)O)NC(=O)[C@H](CCCCN)NC(=O)[C@H](CC(=O)O)NC(=O)[C@H](CC(C)C)NC(=O)[C@](C)(Cc1ccccc1)NC(=O)[C@H](CCCCN)NC(=O)[C@H](CO)NC(=O)[C@@H](NC(=O)[C@H](CC(=O)O)NC(=O)[C@H](CO)NC(=O)[C@@H](NC(=O)[C@H](Cc1ccccc1)NC(=O)[C@@H](NC(=O)CNC(=O)[C@H](CCC(N)=O)NC(=O)C(C)(C)NC(=O)[C@@H](N)Cc1c[nH]cn1)[C@@H](C)O)[C@@H](C)O)C(C)C)C(C)C)C(=O)N[C@@H](CC(C)C)C(=O)NC(C)(C)C(=O)N[C@@H](CCC(=O)O)C(N)=O) [Peptide 470]
0.538 nM	0.255 nM	H[Aib]QGTFTSDVSK[αMeF]LDTK([AEEA-AEEA-γGlu-γGlu-C20 diacid])RAQDFVQWLLE[Aib]G-NH2 (N-terminus assumed; SMILES CC(C)C[C@H](NC(=O)[C@H](Cc1c[nH]c2ccccc12)NC(=O)[C@H](CCC(N)=O)NC(=O)[C@@H](NC(=O)[C@H](Cc1ccccc1)NC(=O)[C@H](CC(=O)O)NC(=O)[C@H](CCC(N)=O)NC(=O)[C@H](C)NC(=O)[C@H](CCCNC(=N)N)NC(=O)[C@H](CCCCNC(=O)COCCOCCNC(=O)COCCOCCNC(=O)CC[C@H](NC(=O)CC[C@H](NC(=O)CCCCCCCCCCCCCCCCCCC(=O)O)C(=O)O)C(=O)O)NC(=O)[C@@H](NC(=O)[C@H](CC(=O)O)NC(=O)[C@H](CC(C)C)NC(=O)[C@](C)(Cc1ccccc1)NC(=O)[C@H](CCCCN)NC(=O)[C@H](CO)NC(=O)[C@@H](NC(=O)[C@H](CC(=O)O)NC(=O)[C@H](CO)NC(=O)[C@@H](NC(=O)[C@H](Cc1ccccc1)NC(=O)[C@@H](NC(=O)CNC(=O)[C@H](CCC(N)=O)NC(=O)C(C)(C)NC(=O)[C@@H](N)Cc1c[nH]cn1)[C@@H](C)O)[C@@H](C)O)C(C)C)[C@@H](C)O)C(C)C)C(=O)N[C@@H](CC(C)C)C(=O)N[C@@H](CCC(=O)O)C(=O)NC(C)(C)C(=O)NCC(N)=O) [Peptide 469]
0.131 nM	0.0356 nM	H[Aib]QGTFTSDVSK[αMeF]LDTK([AEEA-AEEA-γGlu-C18 diacid])RAQDFVQWLLE[Aib]G-NH2 (N-terminus assumed; SMILES CC(C)C[C@H](NC(=O)[C@H](Cc1c[nH]c2ccccc12)NC(=O)[C@H](CCC(N)=O)NC(=O)[C@@H](NC(=O)[C@H](Cc1ccccc1)NC(=O)[C@H](CC(=O)O)NC(=O)[C@H](CCC(N)=O)NC(=O)[C@H](C)NC(=O)[C@H](CCCNC(=N)N)NC(=O)[C@H](CCCCNC(=O)COCCOCCNC(=O)COCCOCCNC(=O)CC[C@H](NC(=O)CCCCCCCCCCCCCCCCC(=O)O)C(=O)O)NC(=O)[C@@H](NC(=O)[C@H](CC(=O)O)NC(=O)[C@H](CC(C)C)NC(=O)[C@](C)(Cc1ccccc1)NC(=O)[C@H](CCCCN)NC(=O)[C@H](CO)NC(=O)[C@@H](NC(=O)[C@H](CC(=O)O)NC(=O)[C@H](CO)NC(=O)[C@@H](NC(=O)[C@H](Cc1ccccc1)NC(=O)[C@@H](NC(=O)CNC(=O)[C@H](CCC(N)=O)NC(=O)C(C)(C)NC(=O)[C@@H](N)Cc1c[nH]cn1)[C@@H](C)O)[C@@H](C)O)C(C)C)[C@@H](C)O)C(C)C)C(=O)N[C@@H](CC(C)C)C(=O)N[C@@H](CCC(=O)O)C(=O)NC(C)(C)C(=O)NCC(N)=O) [Peptide 466]
0.0141 nM	0.0115 nM	H[Aib]QGTFTSDVSK[αMeF]LDRK([AEEA-AEEA-γGlu-C18 diacid])RARDFVQWLL[Aib]E-NH2 (N-terminus assumed; SMILES CC(C)C[C@H](NC(=O)[C@H](Cc1c[nH]c2ccccc12)NC(=O)[C@H](CCC(N)=O)NC(=O)[C@@H](NC(=O)[C@H](Cc1ccccc1)NC(=O)[C@H](CC(=O)O)NC(=O)[C@H](CCCNC(=N)N)NC(=O)[C@H](C)NC(=O)[C@H](CCCNC(=N)N)NC(=O)[C@H](CCCCNC(=O)COCCOCCNC(=O)COCCOCCNC(=O)CC[C@H](NC(=O)CCCCCCCCCCCCCCCCC(=O)O)C(=O)O)NC(=O)[C@H](CCCNC(=N)N)NC(=O)[C@H](CC(=O)O)NC(=O)[C@H](CC(C)C)NC(=O)[C@](C)(Cc1ccccc1)NC(=O)[C@H](CCCCN)NC(=O)[C@H](CO)NC(=O)[C@@H](NC(=O)[C@H](CC(=O)O)NC(=O)[C@H](CO)NC(=O)[C@@H](NC(=O)[C@H](Cc1ccccc1)NC(=O)[C@@H](NC(=O)CNC(=O)[C@H](CCC(N)=O)NC(=O)C(C)(C)NC(=O)[C@@H](N)Cc1c[nH]cn1)[C@@H](C)O)[C@@H](C)O)C(C)C)C(C)C)C(=O)N[C@@H](CC(C)C)C(=O)NC(C)(C)C(=O)N[C@@H](CCC(=O)O)C(N)=O) [Peptide 473]
